Target: TTC4, endogenous in Hela cells (human (endogenous in Hela)) (UniProt O95801)
Assay: co-IP; SDS-PAGE of the anti-TTC4 immune pellet stained with colloidal coomassie blue; data not shown

Chain of HSP70, endogenous in Hela cells (P11142 whole entry): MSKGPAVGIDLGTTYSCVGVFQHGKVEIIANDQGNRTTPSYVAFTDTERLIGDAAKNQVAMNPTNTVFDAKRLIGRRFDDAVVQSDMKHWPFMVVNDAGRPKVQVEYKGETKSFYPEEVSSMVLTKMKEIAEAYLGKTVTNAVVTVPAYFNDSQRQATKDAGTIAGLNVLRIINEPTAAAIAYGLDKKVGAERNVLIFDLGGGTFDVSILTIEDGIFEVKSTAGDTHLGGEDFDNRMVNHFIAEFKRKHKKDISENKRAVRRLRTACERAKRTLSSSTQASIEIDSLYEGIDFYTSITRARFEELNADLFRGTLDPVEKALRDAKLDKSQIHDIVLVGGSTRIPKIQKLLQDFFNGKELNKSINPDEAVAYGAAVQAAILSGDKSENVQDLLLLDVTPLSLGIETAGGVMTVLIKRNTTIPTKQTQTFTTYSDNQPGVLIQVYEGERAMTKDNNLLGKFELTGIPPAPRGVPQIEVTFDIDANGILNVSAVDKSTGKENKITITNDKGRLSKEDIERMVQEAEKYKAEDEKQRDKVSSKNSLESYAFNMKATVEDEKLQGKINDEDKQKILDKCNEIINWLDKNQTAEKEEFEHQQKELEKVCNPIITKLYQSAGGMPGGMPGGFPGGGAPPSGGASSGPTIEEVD
Chain of TTC4, endogenous in Hela cells (human (endogenous in Hela)) (O95801 whole entry): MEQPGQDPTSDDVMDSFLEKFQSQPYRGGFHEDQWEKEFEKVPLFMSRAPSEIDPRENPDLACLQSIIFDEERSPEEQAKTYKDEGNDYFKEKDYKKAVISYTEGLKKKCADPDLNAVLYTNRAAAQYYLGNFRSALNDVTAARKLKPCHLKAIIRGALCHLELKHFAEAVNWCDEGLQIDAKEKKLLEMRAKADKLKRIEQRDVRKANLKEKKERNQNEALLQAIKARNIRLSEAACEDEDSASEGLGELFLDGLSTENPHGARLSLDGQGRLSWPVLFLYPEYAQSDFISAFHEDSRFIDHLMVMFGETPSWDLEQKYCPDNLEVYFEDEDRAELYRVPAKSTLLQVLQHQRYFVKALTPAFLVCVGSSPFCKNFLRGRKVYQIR

HSP70, endogenous in Hela cells (from UniProt P11142 1-646) (natural protein)
level in the immune pellet (colloidal coomassie): 20%

From PMC2253824
